Assay results as given in US20200368125A1, “FAST-ACTING BIOCIDAL CLEANSING COMPOSITION” (Conopco, Inc., d/b/a UNILEVER, priority 2017, published 2020).

Test: Zeta potential measured using Malvern Zetasizer
Assay type: physicochemical
Conditions: 2 ml sample; alkaline (KOH) aqueous medium
Description: The Zeta Potential was measured using Malvern Zetasizer (2 ml sample). […] The error bar of ±0.2 mV […]. […] Usually Proteins tend to destabilise/degrade in the presence of strong alkalis like KOH but the stability of the complex, so prepared, was confirmed by ^1H NMR. […] Surface charge around protein changes with change with complex.

sericin
Zeta Potential: −15±0.2 mV
